{"source": "patent US9266939B2", "about": "“Compositions comprising natriuretic peptides and methods of use thereof” (Alexion Pharmaceuticals, Inc., priority 2010, dated 2016)", "test": "Active NC2st concentration in serum of treated Fgfr3^369/+ mice (cGMP assay)", "format": "in vivo", "conditions": "13-18 hours after the last dose", "description": "At necropsy (Day 64), blood samples were collected by cardiac puncture under isoflurane anesthesia 13-18 hours after the last dose. Blood samples were collected into Microvette 500Z/gel tube (Sarstedt, serum/gel clotting activator, #20.1344), incubated at room temperature for 30 to 60 minutes and centrifuged at 10,000×g for five minutes at 2-8° C. 100 μl of serum was then transferred into 0.5 mL tubes (Sarstedt, #72.699), and the remainder was transferred in a second tube. The two tubes were frozen in liquid nitrogen and stored at −80° C. until analysis."}
{"substance": "NC2st: Fc-CNP fusion: Strep-tag II, TEV site, human IgG-1 Fc, 16-amino acid glycine-rich linker, CNP22; SEQ ID NO: 502", "values": [{"measurement": "mean NC2st blood serum level (active concentration)", "setting": "Tx10 group", "value": "above the projected threshold for 50% reversal of the ACH phenotype"}, {"measurement": "mean NC2st blood serum level (active concentration)", "setting": "Tx100 group", "value": "nearly three-fold above the projected threshold for 100% reversal"}]}
